In US20140087995A1 (published 2014):
Numbered stars: 1 amine (or outer) side, 2 acyl side, 3 side chain; on linkers, the order of the positions; unused ones are H or OH. Bridge positions count the residues as written; N and C are the ends. Side chains are listed from the residue outwards. Ends that are not written are not given here. * marks the point of attachment. C20 diacid = O=C(O)CCCCCCCCCCCCCCCCCCC(=O)*; γGlu = O=C(O)[C@H](CCC(=O)[*:2])N[*:1]; AEEA = NCCOCCOCC(=O)O

Target: T1, human calcitonin receptor (human, UniProt P30988 25-474)
T1 sequence (looked up): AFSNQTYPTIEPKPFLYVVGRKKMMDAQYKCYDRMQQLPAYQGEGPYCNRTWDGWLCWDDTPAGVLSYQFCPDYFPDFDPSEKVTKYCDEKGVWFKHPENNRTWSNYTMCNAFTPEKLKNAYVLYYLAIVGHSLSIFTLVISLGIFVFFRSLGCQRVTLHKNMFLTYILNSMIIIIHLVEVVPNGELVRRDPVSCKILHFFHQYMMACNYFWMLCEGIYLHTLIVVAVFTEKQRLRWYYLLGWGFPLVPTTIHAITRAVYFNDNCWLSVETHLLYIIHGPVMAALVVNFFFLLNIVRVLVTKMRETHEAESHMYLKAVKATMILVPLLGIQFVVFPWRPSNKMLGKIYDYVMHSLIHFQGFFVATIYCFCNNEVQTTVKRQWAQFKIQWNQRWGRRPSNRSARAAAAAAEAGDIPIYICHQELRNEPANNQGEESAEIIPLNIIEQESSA
Assay: cell-based or functional assay

B1: N^ε1-[2-[2-[2-[[(4S)-4-carboxy-4-(19-carboxynonadecanoylamino)butanoyl]amino]ethoxy]ethoxy]acetyl]-[Arg17,Pro21,Pro27]-h-amylin (peptide)
peptide: K([AEEA-γGlu-C20 diacid])CNTATCATQRLANFLRHSSPNFGAIPSSTNVGSNTY-NH2
modifications: disulfide 2-7; N-terminus assumed
SMILES: CC[C@H](C)[C@H](NC(=O)[C@H](C)NC(=O)CNC(=O)[C@H](Cc1ccccc1)NC(=O)[C@H](CC(N)=O)NC(=O)[C@@H]1CCCN1C(=O)[C@H](CO)NC(=O)[C@H](CO)NC(=O)[C@H](Cc1c[nH]cn1)NC(=O)[C@H](CCCNC(=N)N)NC(=O)[C@H](CC(C)C)NC(=O)[C@H](Cc1ccccc1)NC(=O)[C@H](CC(N)=O)NC(=O)[C@H](C)NC(=O)[C@H](CC(C)C)NC(=O)[C@H](CCCNC(=N)N)NC(=O)[C@H](CCC(N)=O)NC(=O)[C@@H](NC(=O)[C@H](C)NC(=O)[C@@H]1CSSC[C@H](NC(=O)[C@@H](N)CCCCNC(=O)COCCOCCNC(=O)CC[C@H](NC(=O)CCCCCCCCCCCCCCCCCCC(=O)O)C(=O)O)C(=O)N[C@@H](CC(N)=O)C(=O)N[C@@H]([C@@H](C)O)C(=O)N[C@@H](C)C(=O)N[C@@H]([C@@H](C)O)C(=O)N1)[C@@H](C)O)C(=O)N1CCC[C@H]1C(=O)N[C@@H](CO)C(=O)N[C@@H](CO)C(=O)N[C@H](C(=O)N[C@@H](CC(N)=O)C(=O)N[C@H](C(=O)NCC(=O)N[C@@H](CO)C(=O)N[C@@H](CC(N)=O)C(=O)N[C@H](C(=O)N[C@@H](Cc1ccc(O)cc1)C(N)=O)[C@@H](C)O)C(C)C)[C@@H](C)O
notes: h-amylin derivative; disulfide bridge and C-terminal amide as told for human amylin; also called compound 41
hCTR funct. EC50: 4.35 nM

B2: N^ε-[(4S)-4-carboxy-4-(19-carboxynonadecanoylamino)butanoyl]Lys[Arg1,Arg17,Pro21,Pro27,His35]-h-amylin (peptide)
peptide: K([γGlu-C20 diacid])RCNTATCATQRLANFLRHSSPNFGAIPSSTNVGSHTY-NH2
modifications: disulfide 3-8; N-terminus assumed
SMILES: CC[C@H](C)[C@H](NC(=O)[C@H](C)NC(=O)CNC(=O)[C@H](Cc1ccccc1)NC(=O)[C@H](CC(N)=O)NC(=O)[C@@H]1CCCN1C(=O)[C@H](CO)NC(=O)[C@H](CO)NC(=O)[C@H](Cc1c[nH]cn1)NC(=O)[C@H](CCCNC(=N)N)NC(=O)[C@H](CC(C)C)NC(=O)[C@H](Cc1ccccc1)NC(=O)[C@H](CC(N)=O)NC(=O)[C@H](C)NC(=O)[C@H](CC(C)C)NC(=O)[C@H](CCCNC(=N)N)NC(=O)[C@H](CCC(N)=O)NC(=O)[C@@H](NC(=O)[C@H](C)NC(=O)[C@@H]1CSSC[C@H](NC(=O)[C@H](CCCNC(=N)N)NC(=O)[C@@H](N)CCCCNC(=O)CC[C@H](NC(=O)CCCCCCCCCCCCCCCCCCC(=O)O)C(=O)O)C(=O)N[C@@H](CC(N)=O)C(=O)N[C@@H]([C@@H](C)O)C(=O)N[C@@H](C)C(=O)N[C@@H]([C@@H](C)O)C(=O)N1)[C@@H](C)O)C(=O)N1CCC[C@H]1C(=O)N[C@@H](CO)C(=O)N[C@@H](CO)C(=O)N[C@H](C(=O)N[C@@H](CC(N)=O)C(=O)N[C@H](C(=O)NCC(=O)N[C@@H](CO)C(=O)N[C@@H](Cc1c[nH]cn1)C(=O)N[C@H](C(=O)N[C@@H](Cc1ccc(O)cc1)C(N)=O)[C@@H](C)O)C(C)C)[C@@H](C)O
notes: h-amylin derivative, N-terminally extended by one residue; disulfide bridge and C-terminal amide as told for human amylin; also called compound 44
hCTR funct. EC50: 4.75 nM

B3: N^-1-[(4S)-4-carboxy-4-(19-carboxynonadecanoylamino)butanoyl]-Gly[Arg1,Arg17,Pro21,Pro27]-h-amylin (peptide)
peptide: {C20 diacid-γGlu}-GRCNTATCATQRLANFLRHSSPNFGAIPSSTNVGSNTY-NH2
modifications: disulfide 3-8
SMILES: CC[C@H](C)[C@H](NC(=O)[C@H](C)NC(=O)CNC(=O)[C@H](Cc1ccccc1)NC(=O)[C@H](CC(N)=O)NC(=O)[C@@H]1CCCN1C(=O)[C@H](CO)NC(=O)[C@H](CO)NC(=O)[C@H](Cc1c[nH]cn1)NC(=O)[C@H](CCCNC(=N)N)NC(=O)[C@H](CC(C)C)NC(=O)[C@H](Cc1ccccc1)NC(=O)[C@H](CC(N)=O)NC(=O)[C@H](C)NC(=O)[C@H](CC(C)C)NC(=O)[C@H](CCCNC(=N)N)NC(=O)[C@H](CCC(N)=O)NC(=O)[C@@H](NC(=O)[C@H](C)NC(=O)[C@@H]1CSSC[C@H](NC(=O)[C@H](CCCNC(=N)N)NC(=O)CNC(=O)CC[C@H](NC(=O)CCCCCCCCCCCCCCCCCCC(=O)O)C(=O)O)C(=O)N[C@@H](CC(N)=O)C(=O)N[C@@H]([C@@H](C)O)C(=O)N[C@@H](C)C(=O)N[C@@H]([C@@H](C)O)C(=O)N1)[C@@H](C)O)C(=O)N1CCC[C@H]1C(=O)N[C@@H](CO)C(=O)N[C@@H](CO)C(=O)N[C@H](C(=O)N[C@@H](CC(N)=O)C(=O)N[C@H](C(=O)NCC(=O)N[C@@H](CO)C(=O)N[C@@H](CC(N)=O)C(=O)N[C@H](C(=O)N[C@@H](Cc1ccc(O)cc1)C(N)=O)[C@@H](C)O)C(C)C)[C@@H](C)O
notes: h-amylin derivative, N-terminally extended by one residue; disulfide bridge and C-terminal amide as told for human amylin; also called compound 46
hCTR funct. EC50: 0.899 nM

B4: N^ε1-[2-[2-[2-(19-carboxynonadecanoylamino)ethoxy]ethoxy]acetyl]-[Arg17,Pro21,Pro27]-h-amylin (peptide)
peptide: K([AEEA-C20 diacid])CNTATCATQRLANFLRHSSPNFGAIPSSTNVGSNTY-NH2
modifications: disulfide 2-7; N-terminus assumed
SMILES: CC[C@H](C)[C@H](NC(=O)[C@H](C)NC(=O)CNC(=O)[C@H](Cc1ccccc1)NC(=O)[C@H](CC(N)=O)NC(=O)[C@@H]1CCCN1C(=O)[C@H](CO)NC(=O)[C@H](CO)NC(=O)[C@H](Cc1c[nH]cn1)NC(=O)[C@H](CCCNC(=N)N)NC(=O)[C@H](CC(C)C)NC(=O)[C@H](Cc1ccccc1)NC(=O)[C@H](CC(N)=O)NC(=O)[C@H](C)NC(=O)[C@H](CC(C)C)NC(=O)[C@H](CCCNC(=N)N)NC(=O)[C@H](CCC(N)=O)NC(=O)[C@@H](NC(=O)[C@H](C)NC(=O)[C@@H]1CSSC[C@H](NC(=O)[C@@H](N)CCCCNC(=O)COCCOCCNC(=O)CCCCCCCCCCCCCCCCCCC(=O)O)C(=O)N[C@@H](CC(N)=O)C(=O)N[C@@H]([C@@H](C)O)C(=O)N[C@@H](C)C(=O)N[C@@H]([C@@H](C)O)C(=O)N1)[C@@H](C)O)C(=O)N1CCC[C@H]1C(=O)N[C@@H](CO)C(=O)N[C@@H](CO)C(=O)N[C@H](C(=O)N[C@@H](CC(N)=O)C(=O)N[C@H](C(=O)NCC(=O)N[C@@H](CO)C(=O)N[C@@H](CC(N)=O)C(=O)N[C@H](C(=O)N[C@@H](Cc1ccc(O)cc1)C(N)=O)[C@@H](C)O)C(C)C)[C@@H](C)O
notes: h-amylin derivative; disulfide bridge and C-terminal amide as told for human amylin; also called compound 43
hCTR funct. EC50: 0.92 nM

B5: N^ε1-[(4S)-4-carboxy-4-[[(4S)-4-carboxy-4-(19-carboxynonadecanoylamino)butanoyl]amino]butanoyl]-[Asp14,Arg17,Pro21,Pro27,Asp35]-h-amylin (peptide)
peptide: K([γGlu-γGlu-C20 diacid])CNTATCATQRLADFLRHSSPNFGAIPSSTNVGSDTY-NH2
modifications: disulfide 2-7; N-terminus assumed
SMILES: CC[C@H](C)[C@H](NC(=O)[C@H](C)NC(=O)CNC(=O)[C@H](Cc1ccccc1)NC(=O)[C@H](CC(N)=O)NC(=O)[C@@H]1CCCN1C(=O)[C@H](CO)NC(=O)[C@H](CO)NC(=O)[C@H](Cc1c[nH]cn1)NC(=O)[C@H](CCCNC(=N)N)NC(=O)[C@H](CC(C)C)NC(=O)[C@H](Cc1ccccc1)NC(=O)[C@H](CC(=O)O)NC(=O)[C@H](C)NC(=O)[C@H](CC(C)C)NC(=O)[C@H](CCCNC(=N)N)NC(=O)[C@H](CCC(N)=O)NC(=O)[C@@H](NC(=O)[C@H](C)NC(=O)[C@@H]1CSSC[C@H](NC(=O)[C@@H](N)CCCCNC(=O)CC[C@H](NC(=O)CC[C@H](NC(=O)CCCCCCCCCCCCCCCCCCC(=O)O)C(=O)O)C(=O)O)C(=O)N[C@@H](CC(N)=O)C(=O)N[C@@H]([C@@H](C)O)C(=O)N[C@@H](C)C(=O)N[C@@H]([C@@H](C)O)C(=O)N1)[C@@H](C)O)C(=O)N1CCC[C@H]1C(=O)N[C@@H](CO)C(=O)N[C@@H](CO)C(=O)N[C@H](C(=O)N[C@@H](CC(N)=O)C(=O)N[C@H](C(=O)NCC(=O)N[C@@H](CO)C(=O)N[C@@H](CC(=O)O)C(=O)N[C@H](C(=O)N[C@@H](Cc1ccc(O)cc1)C(N)=O)[C@@H](C)O)C(C)C)[C@@H](C)O
notes: h-amylin derivative; disulfide bridge and C-terminal amide as told for human amylin; also called compound 2
hCTR funct. EC50: 3 nM

B6: N{Alpha-1}-[(4S)-4-carboxy-4-(19-carboxynonadecanoylamino)butanoyl]-[Glu14,Arg17,Pro21,Pro27,Lys34]-h-amylin (peptide)
peptide: {C20 diacid-γGlu}-KCNTATCATQRLAEFLRHSSPNFGAIPSSTNVGKNTY-NH2
modifications: disulfide 2-7
SMILES: CC[C@H](C)[C@H](NC(=O)[C@H](C)NC(=O)CNC(=O)[C@H](Cc1ccccc1)NC(=O)[C@H](CC(N)=O)NC(=O)[C@@H]1CCCN1C(=O)[C@H](CO)NC(=O)[C@H](CO)NC(=O)[C@H](Cc1c[nH]cn1)NC(=O)[C@H](CCCNC(=N)N)NC(=O)[C@H](CC(C)C)NC(=O)[C@H](Cc1ccccc1)NC(=O)[C@H](CCC(=O)O)NC(=O)[C@H](C)NC(=O)[C@H](CC(C)C)NC(=O)[C@H](CCCNC(=N)N)NC(=O)[C@H](CCC(N)=O)NC(=O)[C@@H](NC(=O)[C@H](C)NC(=O)[C@@H]1CSSC[C@H](NC(=O)[C@H](CCCCN)NC(=O)CC[C@H](NC(=O)CCCCCCCCCCCCCCCCCCC(=O)O)C(=O)O)C(=O)N[C@@H](CC(N)=O)C(=O)N[C@@H]([C@@H](C)O)C(=O)N[C@@H](C)C(=O)N[C@@H]([C@@H](C)O)C(=O)N1)[C@@H](C)O)C(=O)N1CCC[C@H]1C(=O)N[C@@H](CO)C(=O)N[C@@H](CO)C(=O)N[C@H](C(=O)N[C@@H](CC(N)=O)C(=O)N[C@H](C(=O)NCC(=O)N[C@@H](CCCCN)C(=O)N[C@@H](CC(N)=O)C(=O)N[C@H](C(=O)N[C@@H](Cc1ccc(O)cc1)C(N)=O)[C@@H](C)O)C(C)C)[C@@H](C)O
notes: h-amylin derivative; disulfide bridge and C-terminal amide as told for human amylin; also called compound 36
hCTR funct. EC50: 1.28 nM
